# Reference: patent publication US20220281976A1 (Alector, published 2022)
# Changes are numbered by the printed parent chain.
# T1: mouse CD33 Fc fusion protein (mouse, UniProt Q63994 18-240, limits assumed)
# T1 construct: also called mCD33-Fc
# T1 sequence: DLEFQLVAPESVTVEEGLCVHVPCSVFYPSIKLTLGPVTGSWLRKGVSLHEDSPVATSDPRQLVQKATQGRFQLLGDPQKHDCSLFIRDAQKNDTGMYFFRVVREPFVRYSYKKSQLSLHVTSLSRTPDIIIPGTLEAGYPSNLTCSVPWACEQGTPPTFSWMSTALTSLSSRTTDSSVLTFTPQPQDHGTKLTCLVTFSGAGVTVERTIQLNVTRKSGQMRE
# B1: C-9 (antibody, V domains shown)
# VH: QLQLQESGPGLVKPSETLSLTCTVSGGSISSSSYYWGWIRQPPGKGLEWIGSIYYSGSTYYNPSLKSRVTISVDTSKNQFSLKLSSVTAADTAVYYCARESGFAGLDPWGQGTLVTVSS
# VL: EIVLTQSPGTLSLSPGERATLSCRASQSVSSSFLAWYQQKPGQAPRLLIYGASSRATGIPDRFSGSGSGTDFTLTISRLEPEDFAVYYCQQSEDWPTFGGGTKVEIK
# notes: human IgG1
# B2: C-12 (antibody, V domains shown)
# VH: EVQLLESGGGLVQPGGSLRLSCAASGFTFSNYAMSWVRQAPGKGLEWVSAISGSGGSTYYADSVKGRFTISRDNSKNTLYLQMNSLRAEDTAVYYCARDGSRYSYGLVAYGMDVWGQGTTVTVSS
# VL: B1 VL with E93Q, D94L, W95R
# notes: human IgG1
# B3: C-14 (antibody, V domains shown)
# VH: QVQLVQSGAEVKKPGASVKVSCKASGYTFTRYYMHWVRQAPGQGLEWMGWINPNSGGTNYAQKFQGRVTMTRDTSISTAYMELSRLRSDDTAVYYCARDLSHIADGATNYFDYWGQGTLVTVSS
# VL: DIQMTQSPSSVSASVGDRVTITCRASQGISSWLAWYQQKPGKAPKLLIYAASSLQSGVPSRFSGSGSGTDFTLTISSLQPEDFATYYCQQANYFPTFGGGTKVEIK
# notes: human IgG1
# B4: C-16 (antibody, V domains shown)
# VH: EVQLVESGGGLVQPGGSLRLSCAASGFTFSSYWMSWVRQAPGKGLEWVANINQDGSEKYYVDSVKGRFTISRDNAKNSLYLQMNSLRAEDTAVYYCAREGSDRHPFDYWGQGTLVTVSS
# VL: DIQMTQSPSSLSASVGDRVTITCRASQSISSYLNWYQQKPGKAPKLLIYAASSLQSGVPSRFSGSGSGTDFTLTISSLQPEDFATYYCQQAYLVPLTFGGGTKVEIK
# notes: human IgG1
# B5: C-8 (antibody, V domains shown)
# VH: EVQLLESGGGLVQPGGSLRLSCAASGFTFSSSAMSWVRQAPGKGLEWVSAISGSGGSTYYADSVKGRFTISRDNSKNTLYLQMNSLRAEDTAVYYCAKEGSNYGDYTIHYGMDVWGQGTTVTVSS
# VL: EIVLTQSPGTLSLSPGERATLSCRASQSVSSSFLAWYQQKPGQAPRLLIYGASSRATGIPDRFSGSGSGTDFTLTISRLEPEDFAVYYCQQVASPPPTFGGGTKVEIK
# notes: human IgG1
# B6: C-20 (antibody, V domains shown)
# VH: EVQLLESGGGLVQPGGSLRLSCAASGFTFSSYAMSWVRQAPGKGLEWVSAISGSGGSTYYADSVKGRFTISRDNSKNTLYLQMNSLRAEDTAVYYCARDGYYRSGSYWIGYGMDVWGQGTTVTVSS
# VL: B5 VL with A93D, P95Y
# notes: human IgG1
# B7: C-15 (antibody, V domains shown)
# VH: QVQLVESGGGVVQPGRSLRLSCAASGFTFSSYGMHWVRQAPGKGLEWVAVIWYDGSNKYYADSVKGRFTISRDNSKNTLYLQMNSLRAEDTAVYYCAKGVGYDTGTDMDVWGKGTTVTVSS
# VL: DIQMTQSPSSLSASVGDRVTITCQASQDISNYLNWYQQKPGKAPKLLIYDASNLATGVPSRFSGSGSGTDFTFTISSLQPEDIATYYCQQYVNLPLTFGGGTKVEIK
# notes: human IgG1
# B8: C-3 (antibody, V domains shown)
# VH: QVQLVQSGAEVKKPGSSVKVSCKASGGTFSNYAISWVRQAPGQGLEWMGGIIPIFGTANYAQKFQGRVTITADESTSTAYMELSSLRSEDTAVYYCARDTGTYVTGDGMDVWGQGTTVTVSS
# VL: EIVMTQSPATLSVSPGERATLSCRASQSVSSNLAWYQQKPGQAPRLLIYGASTRATGIPARFSGSGSGTEFTLTISSLQSEDFAVYYCQQYDVWPITFGGGTKVEIK
# notes: human IgG1
# B9: C-10 (antibody, V domains shown)
# VH: B8 VH
# VL: B8 VL with D92V, V93N, W94L
# notes: human IgG1
# B10: C-11 (antibody, V domains shown)
# VH: B8 VH
# VL: B8 VL with G50S, D92I, W94L
# notes: human IgG1
# Target: T2, human CD33 Fc fusion protein (human, UniProt P20138 18-259)
# T2 construct: also called hCD33-Fc; human CD33/Fc chimera (R&D Systems)
# T2 sequence (P20138 18-259 limits assumed): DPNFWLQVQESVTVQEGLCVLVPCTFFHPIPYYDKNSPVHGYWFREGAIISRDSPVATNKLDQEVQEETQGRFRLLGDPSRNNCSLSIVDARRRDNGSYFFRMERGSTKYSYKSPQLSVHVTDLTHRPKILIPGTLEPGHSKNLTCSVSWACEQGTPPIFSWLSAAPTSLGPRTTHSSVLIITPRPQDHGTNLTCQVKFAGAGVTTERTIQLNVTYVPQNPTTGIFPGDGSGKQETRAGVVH
# Test: RBC adhesion to plate-bound CD33-Fc; antibody 1.0 ug/ml;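 note: red blood cells adhering to plate-coated CD33-Fc after 1 h antibody pretreatment, then 1 h at room temperature, bound cells read as peroxidase activity after lysis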
row,Percent RBC Binding to CD33,Binder
1,20%,B1
2,17.8%,B2
3,80.8%,B3
4,7.69%,B4
5,12.7%,B5
6,9.4%,B6
7,8.77%,B7
8,9.8%,B8
9,12.3%,B9
10,7.6%,B10

# Target: T2, human CD33 Fc fusion protein
# Test: RBC adhesion to plate-bound CD33-Fc; antibody 0.5 ug/ml;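 note: Plate-coated CD33-Fc preincubated 1 h with antibody, then red blood cells added for 1 h at room temperature, adherent cells lysed and quantified via peroxidase activity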
# Description: Briefly, 5 ug/ml CD33-Fc was coated overnight at RT in 96 well Immunolon plates, then washed with PBS, blocked for one hour with binding buffer (PBS containing %0.25 BSA 1 mM CaCl₂). CD33 antibodies (0.5 ug/ml or 1.0 ug/ml) or Fabs (25 ug/ml) were bound for one hour at RT with gentle rocking. After removal of unbound antibody, red blood cells were added to each well at a concentration of 3.0×10⁶ cells per ml and incubated at RT for one hour. Unbound RBCs were then carefully washed off 3× with PBS, and water was added to each well for hypotonic lysis of bound RBCs. The plate was transferred to −80° C. for 10 minutes, followed by 37° C. for 15 minutes. Bound RBCs were detected by peroxidase activity, followed by 2N sulfuric acid to stop the reaction.
row,Percent RBC Binding to CD33,Binder
1,27.8%,B1
2,6.34%,B2
3,76.5%,B3
4,17.2%,B4
5,12.7%,B5
6,12.5%,B6
7,15.3%,B7
8,14.5%,B8
9,13.8%,B9
10,13%,B10

# Target: T3, human CD33 (human, UniProt P20138 18-364)
# T3 sequence (P20138 18-364): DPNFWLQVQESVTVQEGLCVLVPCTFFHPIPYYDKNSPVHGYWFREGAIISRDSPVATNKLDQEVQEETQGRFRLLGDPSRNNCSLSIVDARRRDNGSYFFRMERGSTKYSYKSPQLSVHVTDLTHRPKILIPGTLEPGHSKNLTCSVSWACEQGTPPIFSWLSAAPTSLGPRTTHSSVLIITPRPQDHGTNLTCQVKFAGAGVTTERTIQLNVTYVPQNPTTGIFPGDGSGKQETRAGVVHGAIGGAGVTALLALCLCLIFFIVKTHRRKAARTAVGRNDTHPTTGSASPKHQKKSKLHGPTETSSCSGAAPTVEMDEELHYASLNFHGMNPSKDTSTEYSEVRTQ
# Test: cell-based or functional assay
"Percent CD33 Surface Expression, DC % CD33","Percent CD33 Surface Expression, Macrophage % CD33","Percent CD33 Surface Expression, Monocyte % CD33",Binder
26%,63.4%,33.1%,B1
23.6%,68.5%,54.2%,B2
63.1%,97.4%,101%,B3
19.5%,62.6%,42.4%,B4
42.1%,87.3%,51.9%,B5
30.2%,54.3%,53.9%,B6
17%,42%,32.6%,B7
27.9%,63.5%,29.1%,B8
19.5%,44.5%,31.5%,B9
23.3%,64.3%,41.3%,B10

# Target: T1, mouse CD33 Fc fusion protein
# Test: ForteBio BLI or MSD-SET
row,binding result,Binder
1,no binding (tested: 100 nM),B1
2,no binding (tested: 100 nM),B2
3,no binding (tested: 100 nM),B3
4,no binding (tested: 100 nM),B4
5,no binding (tested: 100 nM),B5
6,no binding (tested: 100 nM),B6
7,no binding (tested: 100 nM),B7
8,no binding (tested: 100 nM),B8
9,no binding (tested: 100 nM),B9
10,no binding (tested: 100 nM),B10

# Target: T3, human CD33
# Test: flow cytometry, human primary monocytes;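 note: binding of anti-CD33 antibodies at 10 ug/ml to human primary monocytes, 1 h on ice, detected by PE-labelled secondary antibody, flow cytometry readout as mean fluorescence intensity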
# Set-up: reference not given here
row,Monocyte MFI,Binder
1,175,B1
2,208,B2
3,178,B3
4,133,B4
5,204,B5
6,196,B6
7,191,B7
8,109,B8
9,107,B9
10,106,B10

# Target: T3, human CD33
# Test: flow cytometry, human primary dendritic cells;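 note: binding of anti-CD33 antibodies (10 ug/ml, 1 h on ice) to human primary dendritic cells, detected with a PE-labelled secondary antibody, reported as flow cytometry MFI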
row,DC MFI,Binder
1,1700,B1
2,1120,B2
3,1120,B3
4,1750,B4
5,1370,B5
6,1700,B6
7,2020,B7
8,1520,B8
9,1230,B9
10,1030,B10

# Target: T3, human CD33
# Test: flow cytometry, human primary macrophages;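 note: binding of CD33 antibodies at 10 µg/ml to human primary macrophages, 1 h on ice, detected with PE-labelled secondary antibody by flow cytometry, reported as MFI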
row,Macrophage MFI,Binder
1,886,B1
2,1080,B2
3,746,B3
4,711,B4
5,980,B5
6,730,B6
7,883,B7
8,715,B8
9,792,B9
10,795,B10

# Target: T4, human monomeric His tagged CD33 protein (human, UniProt P20138 18-259)
# T4 construct: also called hCD33-His
# T4 sequence (P20138 18-259 limits assumed): as the sequence (P20138 18-259 limits assumed) above
# Test: ForteBio BLI or MSD-SET, IgG, monomeric antigen;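 note: BLI: antibodies captured on AHQ sensors, 100 nM antigen association 5 min, dissociation 5 min, 1:1 fit. MSD-SET: antigen fixed at 50 pM, antibody titrated, quadratic fit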
row,Kd,Binder
1,4.17 nM,B1
2,7.47 nM,B2
3,3.49 nM,B3
4,5.87 nM,B4
5,6.94 nM,B5
6,0.958 nM,B6
7,6.55 nM,B7
8,5.76 nM,B8
9,6.24 nM,B9
10,7.12 nM,B10

# Target: T2, human CD33 Fc fusion protein
# Test: ForteBio BLI or MSD-SET, IgG, avid;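 note: Anti-CD33 IgG affinity by BLI, IgG captured on AHQ sensors with antigen in solution and a one-to-one kinetic fit, or by MSD solution equilibrium titration with quadratic fit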
# Description: The binding affinity of each anti-CD33 antibody was determined by measuring their KD by ForteBio or MSD-SET. […] Briefly, ForteBio affinity measurements were performed by loading IgGs on-line onto AHQ sensors. Sensors were equilibrated off-line in assay buffer for 30 min and then monitored on-line for 60 seconds for baseline establishment. Sensors with loaded IgGs were exposed to 100 nM antigen for 5 minutes, then transferred to assay buffer for 5 min for off-rate measurement. Kinetics were analyzed using the 1:1 binding model.
# Solution equilibrium titrations (SET) were performed in PBS+0.1% IgG-Free BSA (PBSF) with antigen held constant at 50 pM and incubated with 3-to 5-fold serial dilutions of antibody starting at 10 nM. Antibodies (20 nM in PBS) were coated onto standard bind MSD-ECL plates overnight at 4° C. or at room temperature for 30 min. Plates were then blocked for 30 min with shaking at 700 rpm, followed by three washes with wash buffer (PBSF+0.05% Tween 20). SET samples were applied and incubated on the plates for 150s with shaking at 700 rpm followed by one wash. Antigen captured on a plate was detected with 250 ng/mL sulfotag-labeled streptavidin in PBSF by incubation on the plate for 3 min. The plates were washed three times with wash buffer and then read on the MSD Sector Imager 2400 instrument using 1× Read Buffer T with surfactant. The percent free antigen was plotted as a function of titrated antibody in Prism and fit to a quadratic equation to extract the KD. To improve throughput, liquid handling robots were used throughout MSD-SET experiments, including SET sample preparation.
row,Kd,Binder
1,1.09 nM,B1
2,1.84 nM,B2
3,1.28 nM,B3
4,1.35 nM,B4
5,1.95 nM,B5
6,0.304 nM,B6
7,1.82 nM,B7
8,1.11 nM,B8
9,1.41 nM,B9
10,1.56 nM,B10

# Target: T3, human CD33
# Test: flow cytometry, human primary T cells;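 note: binding of anti-CD33 antibodies at 10 ug/ml to human primary T cells, 1 h on ice, detected with PE-labelled secondary antibody, read as flow cytometry MFI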
# Description: Initial characterization of CD33 antibodies involved determining their ability to bind CD33 expressed on a CHO cell line, on human primary monocytes, human primary macrophages, human primary dendritic cells, and on human primary T cells. Cells were harvested, plated at 10⁶/ml in a 96 well plate, and incubated in 100 ul PBS containing 2% FBS, 2 mM EDTA and 10 ug/ml Mab and Fc blocking reagent for 1 hour in ice. Cells were washed twice and incubated in 100 ul PBS containing 2% FBS, 2 mM EDTA and 5 ug/ml PE-conjugated secondary antibody for 30 minutes on ice. Cells were washed twice in cold PBS and analyze by flow cytometry on a BD FACS Canto. Data analysis and calculation of MFI values was performed with FlowJo (TreeStar) software version 10.0.7.
row,T cell MFI,Binder
1,307,B1
2,182,B2
3,35.7,B3
4,229,B4
5,193,B5
6,205,B6
7,206,B7
8,262,B8
9,246,B9
10,231,B10
